# T1: hNrp2 (b1b2) (human, UniProt O60462 275-595, limits assumed)
# T1 construct: domain: b1b2; Expressed in insect cells; also called B1-B2 domains of hNrp2; b1-b2 domains of human Nrp2
# T1 sequence (looked up): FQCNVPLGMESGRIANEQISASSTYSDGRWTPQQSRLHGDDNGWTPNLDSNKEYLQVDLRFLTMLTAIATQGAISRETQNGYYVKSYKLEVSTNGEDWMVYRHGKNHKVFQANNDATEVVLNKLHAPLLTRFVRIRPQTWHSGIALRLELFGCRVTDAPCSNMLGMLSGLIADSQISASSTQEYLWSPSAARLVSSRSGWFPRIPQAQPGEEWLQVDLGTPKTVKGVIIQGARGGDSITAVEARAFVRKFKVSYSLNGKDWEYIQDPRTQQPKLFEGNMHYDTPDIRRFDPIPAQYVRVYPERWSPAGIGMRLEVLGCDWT
# T2: A1-A2 domains of hNrp2 (human, UniProt O60462 23-270, limits assumed)
# T2 construct: domain: A1-A2; also called CUB (a1-a2) domains of human Nrp2
# T2 sequence (looked up): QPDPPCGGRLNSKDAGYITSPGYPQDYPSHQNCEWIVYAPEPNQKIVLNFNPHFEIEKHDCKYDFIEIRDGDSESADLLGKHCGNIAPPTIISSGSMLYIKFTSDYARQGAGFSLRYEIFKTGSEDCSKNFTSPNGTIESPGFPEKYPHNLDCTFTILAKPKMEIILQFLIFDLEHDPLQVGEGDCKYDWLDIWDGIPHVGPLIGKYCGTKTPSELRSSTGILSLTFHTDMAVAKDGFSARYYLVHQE
# T3: hNrp1 ECD (human, UniProt O14786 22-856)
# T3 construct: extracellular domain
# T3 sequence (looked up): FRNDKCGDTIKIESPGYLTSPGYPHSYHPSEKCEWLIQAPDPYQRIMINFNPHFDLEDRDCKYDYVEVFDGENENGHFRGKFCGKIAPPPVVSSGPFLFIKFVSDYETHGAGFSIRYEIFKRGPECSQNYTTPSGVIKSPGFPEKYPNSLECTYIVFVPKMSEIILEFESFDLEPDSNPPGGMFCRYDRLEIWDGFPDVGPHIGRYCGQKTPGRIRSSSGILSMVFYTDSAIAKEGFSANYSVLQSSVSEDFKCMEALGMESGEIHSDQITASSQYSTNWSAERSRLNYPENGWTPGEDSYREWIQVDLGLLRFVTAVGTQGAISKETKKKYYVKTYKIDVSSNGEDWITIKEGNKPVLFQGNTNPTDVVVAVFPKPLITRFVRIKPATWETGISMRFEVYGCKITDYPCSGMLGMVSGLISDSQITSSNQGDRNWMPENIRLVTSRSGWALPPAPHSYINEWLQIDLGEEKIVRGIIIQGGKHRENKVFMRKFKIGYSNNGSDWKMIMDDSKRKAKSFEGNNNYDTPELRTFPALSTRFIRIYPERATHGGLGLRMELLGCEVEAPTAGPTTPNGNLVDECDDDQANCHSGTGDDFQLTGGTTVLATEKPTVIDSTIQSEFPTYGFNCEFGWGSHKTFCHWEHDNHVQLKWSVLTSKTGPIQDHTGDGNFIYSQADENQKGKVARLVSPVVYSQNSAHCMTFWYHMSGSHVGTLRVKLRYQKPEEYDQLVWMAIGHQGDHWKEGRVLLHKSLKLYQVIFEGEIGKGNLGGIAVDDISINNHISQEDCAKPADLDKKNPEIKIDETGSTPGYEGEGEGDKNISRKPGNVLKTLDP
# T4: hNrp2 (a1a2b1b2)-Fc fusion protein (human, UniProt O60462 23-595, limits assumed)
# T4 construct: domain: a1a2b1b2; Expressed in CHO cells; The SPR text says only 'human Nrp2 (a1a2b1b2)', so it is not certain that the Fc fusion was the analyte there; also called hNrp2 ECD; human Nrp2 ECD; not shown: Fc part of the fusion
# T4 sequence (looked up): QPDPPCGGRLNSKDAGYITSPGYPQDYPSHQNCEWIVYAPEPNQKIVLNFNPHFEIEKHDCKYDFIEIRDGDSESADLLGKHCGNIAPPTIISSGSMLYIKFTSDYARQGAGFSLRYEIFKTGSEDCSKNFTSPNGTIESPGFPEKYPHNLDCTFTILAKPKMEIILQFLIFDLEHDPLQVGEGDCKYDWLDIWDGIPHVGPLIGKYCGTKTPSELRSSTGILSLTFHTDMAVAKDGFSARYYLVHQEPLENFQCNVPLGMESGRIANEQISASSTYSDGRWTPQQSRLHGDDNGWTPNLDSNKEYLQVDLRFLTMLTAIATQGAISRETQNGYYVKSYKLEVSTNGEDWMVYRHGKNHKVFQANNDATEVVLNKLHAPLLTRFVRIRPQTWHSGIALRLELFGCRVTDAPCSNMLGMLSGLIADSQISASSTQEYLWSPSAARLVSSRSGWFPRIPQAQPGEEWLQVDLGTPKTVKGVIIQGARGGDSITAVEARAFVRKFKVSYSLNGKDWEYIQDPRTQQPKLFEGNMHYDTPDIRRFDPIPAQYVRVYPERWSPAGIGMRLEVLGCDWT
# T5: mNrp2 (a1a2b1b2)-His (mouse, UniProt O35375 23-595, limits assumed)
# T5 construct: domain: a1a2b1b2; Expressed in CHO cells; also called mouse Nrp2 (a1a2b1b2); murine Nrp2; not shown: His tag
# T5 sequence (looked up): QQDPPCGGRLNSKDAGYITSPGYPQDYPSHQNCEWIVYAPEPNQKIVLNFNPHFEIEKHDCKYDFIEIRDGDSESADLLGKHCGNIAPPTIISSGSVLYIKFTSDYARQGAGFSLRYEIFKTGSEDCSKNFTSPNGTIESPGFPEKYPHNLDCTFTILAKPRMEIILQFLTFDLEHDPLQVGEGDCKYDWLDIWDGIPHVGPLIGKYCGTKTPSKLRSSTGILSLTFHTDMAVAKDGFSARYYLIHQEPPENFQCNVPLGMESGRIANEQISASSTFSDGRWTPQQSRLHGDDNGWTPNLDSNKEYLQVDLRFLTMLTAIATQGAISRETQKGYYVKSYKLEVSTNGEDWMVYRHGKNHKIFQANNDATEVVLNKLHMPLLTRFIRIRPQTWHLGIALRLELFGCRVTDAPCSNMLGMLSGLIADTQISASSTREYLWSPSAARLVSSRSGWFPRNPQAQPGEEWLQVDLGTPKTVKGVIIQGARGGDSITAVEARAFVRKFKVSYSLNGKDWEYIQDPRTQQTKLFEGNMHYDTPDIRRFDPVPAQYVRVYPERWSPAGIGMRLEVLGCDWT
# B1: anti-Nrp2^B antibody YW68.4.2.36 (antibody, V domains shown)
# VH: EVQLVESGGGLVQPGGSLRLSCAASGFTITSSGIHWVRQAPGKGLEWVARITPYDGSTDYADSVKGRFTISADTSKNTAYLQMNSLRAEDTAVYYCARYRGRLLFDYWGQGTLVTVSS
# VL: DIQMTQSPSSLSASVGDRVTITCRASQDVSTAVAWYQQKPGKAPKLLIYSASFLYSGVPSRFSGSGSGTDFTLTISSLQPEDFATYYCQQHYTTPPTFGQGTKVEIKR
# notes: Phage-derived human synthetic antibody; Human IgG1 was used in SPR and ELISA; also called Anti-Nrp2^B mAb; anti-Nrp2^B IgG1
# Key:
# [1] = biological target: T1, hNrp2 (b1b2); test: ELISA on antigen-coated plate, Anti-Nrp2^B IgG titrated, anti-human HRP detection, OD450
# Description: (§1) For ELISA-based binding specificity tests, three-fold serial dilutions of Anti-Nrp2^B IgGs (0.002 nM to 500 nM) in PBST buffer (PBT buffer with 0.5% (w/v) BSA) were incubated with 1 μg/ml antigen-coated 96-well Maxisorp plates for at least 1 hr, and the plates were washed with PBT buffer. Bound antibodies were detected with anti-human antibody HRP conjugates diluted 1:2500 in PBST buffer, developed with TMB substrate for approximately 5 minutes, quenched with 1M H₃PO₄, and read spectrophotometrically at 450 nm.
# [2] = biological target: T2, A1-A2 domains of hNrp2; test: as above
# Description: as §1
# [3] = biological target: T3, hNrp1 ECD; test: as above
# Description: as §1
# [4] = biological target: T4, hNrp2 (a1a2b1b2)-Fc fusion protein; test: as above
# Description: as §1
# [5] = biological target: T4, hNrp2 (a1a2b1b2)-Fc fusion protein; test: blocking ELISA: plate coated with human Nrp2 ECD (5 ug/ml), antibody pre-incubated, then biotinylated human VEGFC (1 nM), streptavidin-HRP; blocked ligand VEGFC
# Description: FIG. 1. Characterization of Anti-Nrp2^B mAb. (A) Schematic representation of Sema and VEGF binding regions on Nrp2 relative to Anti-Nrp2^B epitope regions. […] (C) Blocking of VEGFC binding to Nrp2 by Anti-Nrp2^B. Increasing amounts of mAb was pre-incubated with plates coated with human Nrp2 ECD (5 μg/ml) for 1-2 hrs, followed by adding pre-titrated biotinylated human VEGFC (1 nM) for 15 min. The percentage of bound VEGFC was detected by streptavidin-HRP conjugates. (D) Blocking of VEGF₁₆₅ binding to Nrp2 by Anti-Nrp2^B. (E) Blocking of Sema3F binding to LECs. LEC were incubated with conditioned media containing Sema3F fused to alkaline phosphatase (AP) (REF), in the presence or absence of Anti-Nrp2^B. AP activity derived form bound Sema3F-AP was detected colorimetrically with same development times. […] Nrp2 ECD was used as a positive control for blocking binding (right panel). Scale bar
# (§2) To evaluate blocking Nrp2 from binding VEGF, three-fold serial dilutions of anti-Nrp2^B IgGs were first incubated with 96-well Maxisorp plate coated NRP2-Fc (5 μg/ml) in PBST buffer for 2 hr, following by adding biotinylated VEGF₁₆₅ or VEGFC (full length) for 15 minutes. The amount of biotinylated VEGF binding to Nrp2 was detected by streptavidin-HRP conjugates.
# [6] = biological target: T4, hNrp2 (a1a2b1b2)-Fc fusion protein; test: SPR (BIAcore-3000), human IgG1 captured on anti-human IgG CM5 chip, human Nrp2 (a1a2b1b2) injected 0.5-250 nM, 25 C, 1:1 Langmuir; human Nrp2
# Description: (§3) To determine binding affinities of anti-Nrp2^B IgG1 antibodies, surface plasmon resonance (SRP) measurement with a BIAcore™-3000 instrument was used. First of all, anti-Nrp2^B human IgGs were captured by CM5 biosensor chips coated rabbit anti-human IgG to achieve approximately 200 response units (RU). For kinetics measurements, two-fold serial dilutions of mouse or human Nrp2 (a1a2b1b2) (0.5 nM to 250 nM) were injected separately in PBT buffer (PBS with 0.05% (v/v) Tween 20) at 25° C. with a flow rate of 30 μl/min. Association rates (kₒₙ) and dissociation rates (koff) were calculated using a simple one-to-one Langmuir binding model (BIAcore Evaluation Software version 3.2). The equilibrium dissociation constant (KD) was calculated as the ratio koff/kₒₙ.
# [7] = biological target: T5, mNrp2 (a1a2b1b2)-His; test: SPR (BIAcore-3000), human IgG1 captured on anti-human IgG CM5 chip, mouse Nrp2 (a1a2b1b2) injected 0.5-250 nM, 25 C, 1:1 Langmuir; murine Nrp2
# Description: as §3
# [8] = biological target: T4, hNrp2 (a1a2b1b2)-Fc fusion protein; test: competition ELISA: antibody titrated on plate-coated NRP2-Fc (5 ug/ml), competitor biotinylated VEGF165, streptavidin-HRP; blocking of VEGF165 binding
# Description: as §2
binder,measurement,setting,value
B1,EC50 (read off the curve),[1],~0.3 nM
same,binding result,[2],no binding (tested: 500 nM)
same,binding result,[3],no binding (tested: 500 nM)
same,EC50 (read off the curve),[4],~0.2 nM
same,IC50 (read off the curve),[5],~0.1 nM
same,Kd,[6],5.3 nM
same,Kd,[7],4.9 nM
same,IC50,[8],0.1 nM
